Reference: US20180371107A1 (published 2018)

T1: mouse zymogen NSP4 (mZ-NSP4) (mouse), Q14B24
T1 chain: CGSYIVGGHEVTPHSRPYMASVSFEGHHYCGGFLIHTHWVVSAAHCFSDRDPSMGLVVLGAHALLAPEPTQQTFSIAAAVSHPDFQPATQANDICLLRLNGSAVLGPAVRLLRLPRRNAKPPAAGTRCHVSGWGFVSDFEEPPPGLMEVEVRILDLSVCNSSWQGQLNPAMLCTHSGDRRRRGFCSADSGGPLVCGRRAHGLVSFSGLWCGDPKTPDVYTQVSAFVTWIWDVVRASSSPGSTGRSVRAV

T2: mouse NSP4 (mNSP4), form not stated in Example 6 (mouse, UniProt Q14B24 40-284, limits assumed)
T2 construct: also called recombinant mouse NSP4; purified mouse NSP4
T2 sequence (looked up): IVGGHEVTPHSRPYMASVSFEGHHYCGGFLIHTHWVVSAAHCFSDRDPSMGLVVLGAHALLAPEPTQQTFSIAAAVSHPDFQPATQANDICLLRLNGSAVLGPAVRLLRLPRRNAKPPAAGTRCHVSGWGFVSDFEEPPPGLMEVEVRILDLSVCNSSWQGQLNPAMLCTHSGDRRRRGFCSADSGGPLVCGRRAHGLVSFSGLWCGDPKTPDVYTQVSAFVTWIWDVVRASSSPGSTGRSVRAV

T3: mouse active NSP4 (mA-NSP4) (mouse, UniProt Q14B24 40-284)
T3 construct: mature; Made from mZ by enteropeptidase cleavage; also called mature form of mouse NSP4
T3 sequence (looked up): T2 sequence (looked up)

T4: mouse zymogen NSP4 (mZ-NSP4) (mouse, UniProt Q14B24 36-284)
T4 construct: Expressed in CHO cells; also called precursor form of mouse NSP4; not shown: N-terminal FLAG tag removable by enteropeptidase (cleavage after Asp-Asp-Asp-Asp-Lys)
T4 sequence (looked up): T1 chain

T5: human NSP4 (hNSP4), form not stated in Example 6 (human, UniProt Q6UWY2 34-283, limits assumed)
T5 sequence (looked up): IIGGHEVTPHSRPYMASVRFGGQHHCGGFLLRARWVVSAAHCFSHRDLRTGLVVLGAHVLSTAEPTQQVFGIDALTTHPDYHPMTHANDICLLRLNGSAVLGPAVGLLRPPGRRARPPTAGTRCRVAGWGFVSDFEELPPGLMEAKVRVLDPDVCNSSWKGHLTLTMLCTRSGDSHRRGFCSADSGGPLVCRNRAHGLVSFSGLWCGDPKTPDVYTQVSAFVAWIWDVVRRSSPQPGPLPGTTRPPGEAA

B1: anti-NSP4 antibody 5-1 (antibody, V domains shown)
VH: EVQLVESGGGLVQPGGSLRLSCAASGFTFSGSGIHWVRQAPGKGLEWVAWISPTGGNTYYADSVKGRFTISADTSKNTAYLQMNSLRAEDTAVYYCAKSLFHNVAFDYWGQGTLVTVSS
VL: DIQMTQSPSSLSASVGDRVTITCRASQDVSTAVAWYQQKPGKAPKLLIYSASFLYSGVPSRFSGSGSGTDFTLTISSLQPEDFATYYCQQSYTTPPTFGQGTKVEIKR
notes: also called Ab 5-1; Ab5-1
B2: anti-NSP4 antibody 5-3 (antibody, human IgG1, V domains shown)
VH: EVQLVESGGGLVQPGGSLRLSCAASGFTFSGNDISWVRQAPGKGLEWVAGISPYGGSTYYADSVKGRFTISADTSKNTAYLQMNSLRAEDTAVYYCARRVSFYSRHAGMDYWGQGTLVTVSS
VL: B1 VL
B3: anti-NSP4 antibody 5-4 (antibody, human IgG1, V domains shown)
VH: EVQLVESGGGLVQPGGSLRLSCAASGFTFTSYAISWVRQAPGKGLEWVAGISPSNGYTNYADSVKGRFTISADTSKNTAYLQMNSLRAEDTAVYYCARAGRWTHSDIDYWGQGTLVTVSS
VL: B1 VL
notes: also called Ab 5-4
B4: anti-NSP4 antibody 3-2 (antibody, V domains shown)
VH: EVQLVESGGGLVQPGGSLRLSCAASGFTFSDYSISWVRQAPGKGLEWVGEINPAGGATYYADSVKGRFTISADTSKNTAYLQMNSLRAEDTAVYYCARGDFPFWSDAYYVMDYWGQGTLVTVSS
VL: B1 VL
notes: also called Ab 3-2
B5: anti-NSP4 antibody 3-5 (antibody, V domains shown)
VH: EVQLVESGGGLVQPGGSLRLSCAASGFTFSDNDISWVRQAPGKGLEWVGSISPDNGDTNYADSVKGRFTISADTSKNTAYLQMNSLRAEDTAVYYCARDDVPAVFTSAMDYWGQGTLVTVSS
VL: B1 VL
notes: also called Ab 3-5; Ab35

How the values were obtained:
[1] = biological target: T1, mouse zymogen NSP4 (mZ-NSP4) (mouse), …; assay: BLI; no affinity; conditions: chains VH:VL; remark: other sources report otherwise
[2] = biological target: T2, mouse NSP4 (mNSP4), form not stated in …; assay: phage competition binding assay (phage IC50), soluble mNSP4 competitor
[3] = biological target: T3, mouse active NSP4 (mA-NSP4); assay: competition phage ELISA (phage IC50): phage clone preincubated with soluble mA-NSP4, then on NSP4-coated wells
Protocol: Phage at sub-saturating concentrations were first incubated with increasing concentrations of target NSP4 antigen (either hZ, hA, mZ, or mA) for 1 to 2 hour(s), and then transferred to wells coated with the same NSP4 antigen to capture the unbound phage.
Briefly, 2 ug/ml of NSP4 (hZ, hA, mZ, or mA variants) was coated on wells overnight at 4° C. in PBS supplemented with 0.5% BSA. Each individual phage clone (at 0.01 OD/ml) was purified and incubated with increasing concentrations of soluble NSP4 protein for 2 h at room temperature before being placed into wells coated with immobilized NSP4 protein for 15 min at room temperature. The wells were then washed with PBS supplemented with 0.05% Tween-20 for 10 times and developed using anti-M13 phage antibody conjugated with HRP (New England Biolabs). […] The soluble phage:antigen complex, with higher likelihood to be high-affinity phage clones, would thus be removed through successive washing steps, resulting in lower A450 signal at any given concentration of soluble antigen. Consequently, higher affinity phage clones would have a lower phage IC50 value, with a concomitant leftward-shift in the binding curves, compared to lower affinity phage clones.

[4] = biological target: T4, mouse zymogen NSP4 (mZ-NSP4); assay: competition phage ELISA (phage IC50): phage clone preincubated with soluble mZ-NSP4, then on NSP4-coated wells
[5] = biological target: T5, human NSP4 (hNSP4), form not stated in …; assay: phage competition binding assay (phage IC50), soluble hNSP4 competitor

Binder | Kd [1] [nM] | IC50 [2] [nM] | IC50 [3] [nM] | IC50 [4] [nM] | IC50 [5] [nM]
B1 | > 1000 | 18.7 | 9.93 |  | 
B2 | > 1000 |  | 319 |  | 
B3 | > 1000 |  | 60.5 |  | 
B4 |  |  |  | 0.15 | 
B5 |  | 0.131 |  | 0.18 | 32.8
